According to the supplement of paper PMC9876800:

Tested on: peptide library, one residue held at a place counted from the S/T acceptor
Assay: relative phosphorylation of the sub-library (ratio to the mean residue at this position); higher = residue favoured
Conditions: human
Procedure, shortened: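 Each biotinylated degenerate peptide sub-library fixed one residue at one position around a central Ser/Thr and was incubated with a purified recombinant kinase, a human or orthologue construct, in 384-well plates. The 90 min reactions, under kinase-specific conditions, contained 50 μM peptide and 50 μM ATP spiked with γ-32P-ATP. Phosphorylation was read by phosphorimaging spots on streptavidin membranes and quantifying them by densitometry. Relative sub-library phosphorylation expresses each value as a ratio to the mean residue at that position.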

Chain of PNCK, construct: Full length (Q6P2M8 whole entry, looked up): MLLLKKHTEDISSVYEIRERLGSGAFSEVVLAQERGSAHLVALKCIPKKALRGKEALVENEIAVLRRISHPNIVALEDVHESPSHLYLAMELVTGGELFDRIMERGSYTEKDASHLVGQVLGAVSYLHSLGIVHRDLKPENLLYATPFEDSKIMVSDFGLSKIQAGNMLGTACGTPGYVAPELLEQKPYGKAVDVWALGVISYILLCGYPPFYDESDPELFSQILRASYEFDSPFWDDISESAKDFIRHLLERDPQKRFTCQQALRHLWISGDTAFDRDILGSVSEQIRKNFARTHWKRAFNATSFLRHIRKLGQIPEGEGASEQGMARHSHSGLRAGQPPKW

PNCK, construct: Full length (from UniProt Q6P2M8)
relative phosphorylation
Conditions | at +1 | at +2 | at +3 | at +4 | at -1 | at -2 | at -3 | at -4 | at -5
A fixed | 0.986 | 1.09 | 1 | 0.953 | 0.983 | 1.03 | 0.881 | 0.95 | 0.856
D fixed | 0.844 | 1.03 | 1.2 | 1.01 | 1.07 | 0.666 | 0.626 | 0.713 | 0.718
E fixed | 0.919 | 1.03 | 1.07 | 0.985 | 0.92 | 0.678 | 0.644 | 0.803 | 0.726
F fixed | 1.37 | 0.986 | 1 | 1.07 | 0.904 | 0.687 | 0.659 | 0.921 | 1.12
G fixed | 0.879 | 0.871 | 1.01 | 1.01 | 1.01 | 0.814 | 0.678 | 0.863 | 0.833
H fixed | 0.96 | 1.28 | 1.02 | 0.93 | 1.06 | 0.826 | 0.799 | 0.921 | 0.839
I fixed | 0.869 | 1.01 | 0.851 | 1.13 | 0.785 | 0.795 | 0.741 | 1.06 | 1.12
K fixed | 1.13 | 0.889 | 0.962 | 0.927 | 1.32 | 1.88 | 1.84 | 1.7 | 1.13
L fixed | 0.866 | 0.98 | 0.913 | 1.2 | 0.826 | 0.764 | 0.694 | 1.1 | 1.56
M fixed | 0.938 | 0.893 | 0.876 | 0.982 | 0.869 | 0.855 | 0.668 | 0.986 | 1.07
N fixed | 1.06 | 0.966 | 1.26 | 0.96 | 1.41 | 0.934 | 0.732 | 0.892 | 0.822
P fixed | 0.777 | 0.914 | 0.92 | 1.07 | 1.07 | 0.641 | 0.649 | 0.787 | 0.994
Q fixed | 1.19 | 0.947 | 0.976 | 1 | 0.983 | 1.46 | 0.826 | 1.01 | 0.958
R fixed | 1.39 | 1.02 | 0.958 | 0.875 | 1.32 | 2.64 | 4.54 | 1.49 | 1.44
V fixed | 0.873 | 1.02 | 0.885 | 0.991 | 0.795 | 0.8 | 0.679 | 1.05 | 0.956
W fixed | 0.909 | 0.916 | 1.02 | 0.989 | 0.81 | 0.829 | 0.7 | 0.835 | 0.873
Y fixed | 1.02 | 1.14 | 1.08 | 0.91 | 0.86 | 0.706 | 0.644 | 0.91 | 0.973
pThr fixed | 1.16 | 1.29 | 1.1 | 1.13 | 0.832 | 0.701 | 0.723 | 0.902 | 0.774
pTyr fixed | 1.12 | 2.97 | 1.42 | 1.04 | 1.02 | 0.701 | 0.684 | 0.799 | 0.897

PKN1, construct: aa460-982 (from UniProt Q16512)
relative phosphorylation
Conditions | at +1 | at +2 | at +3 | at +4 | at -1 | at -2 | at -3 | at -4 | at -5
A fixed | 0.528 | 0.745 | 0.906 | 1 | 1.03 | 1.13 | 0.67 | 1.01 | 0.865
D fixed | 0.183 | 0.162 | 0.281 | 0.393 | 0.581 | 0.2 | 0.126 | 0.354 | 0.262
E fixed | 0.171 | 0.149 | 0.352 | 0.372 | 0.509 | 0.254 | 0.14 | 0.536 | 0.256
F fixed | 4.71 | 0.739 | 1.14 | 0.743 | 1.03 | 0.85 | 0.456 | 1.06 | 1.19
G fixed | 0.361 | 0.397 | 0.783 | 0.98 | 1 | 0.777 | 0.412 | 1.14 | 0.789
H fixed | 0.564 | 1.34 | 1.02 | 1.22 | 1.22 | 1.16 | 0.907 | 1.03 | 0.761
I fixed | 1.26 | 0.785 | 1.04 | 0.753 | 0.535 | 0.557 | 0.407 | 0.88 | 1.6
K fixed | 0.784 | 2.16 | 1.46 | 2.04 | 1.53 | 2 | 2 | 1.73 | 1.2
L fixed | 1.13 | 1.1 | 1.06 | 0.794 | 0.973 | 0.638 | 0.455 | 0.922 | 1.84
M fixed | 2.16 | 0.896 | 1.06 | 0.819 | 1.05 | 0.89 | 0.483 | 1.07 | 0.967
N fixed | 0.483 | 0.575 | 0.629 | 0.929 | 1.16 | 0.926 | 0.315 | 0.717 | 0.49
P fixed | 0.266 | 0.297 | 0.493 | 1.4 | 1.16 | 0.347 | 0.328 | 0.59 | 0.921
Q fixed | 0.62 | 0.578 | 0.736 | 0.996 | 0.947 | 1.05 | 0.585 | 0.842 | 0.643
R fixed | 0.999 | 4.44 | 2 | 1.86 | 1.51 | 3.36 | 8.17 | 2.01 | 1.61
V fixed | 0.852 | 0.749 | 1.02 | 0.678 | 0.622 | 0.781 | 0.373 | 0.991 | 1.55
W fixed | 0.889 | 0.675 | 1.5 | 1.15 | 0.9 | 1.1 | 0.58 | 0.992 | 0.926
Y fixed | 1.04 | 1.22 | 1.53 | 0.87 | 1.24 | 0.978 | 0.6 | 1.13 | 1.14
pThr fixed | 0.476 | 0.43 | 0.412 | 0.443 | 0.302 | 0.296 | 0.259 | 0.551 | 0.368
pTyr fixed | 0.314 | 0.354 | 0.567 | 0.384 | 0.388 | 0.266 | 0.215 | 0.412 | 0.514
